Test results: patent US20240239894A1, “THERAPEUTIC BINDING MOLECULES” (MedImmune Limited, priority 2020, published 2024)
Entries after “also recorded” stand apart in the source; their conditions may differ.

B1: E02-GL: germlined ZY0EQD-E02, VH SEQ ID NO: 45, VL SEQ ID NO: 34; antibody intermediate of E02-GL-SG3932 (antibody, V domains shown)
VH: QVQLQQWGAGLLKPSETLSLACTVYGGSFSGYYWNWIRQPPGKGLEWIGEINHSGSTSYNPSLKSRVTISVDTSKNQFSLKLSSVTAADTAVYYCARVLYNWNVDSWGQGTLVTVSS
VL: DIQMTQSPSSLSASVGDRVTITCRASQDIRNDVGWYQQKPGKAPKRLIYAASRLQSGVPSRFSGSGSGTEFTLTISSLQPEDFATYYCLQHNSYPRTFGQGTKVEIK
B2: E02-GL-SG3249: clone E02-GL (Maia heavy chain backbone) conjugated to the PBD cytotoxin SG3249 (conjugate)
heavy: QVQLQQWGAGLLKPSETLSLACTVYGGSFSGYYWNWIRQPPGKGLEWIGEINHSGSTSYNPSLKSRVTISVDTSKNQFSLKLSSVTAADTAVYYCARVLYNWNVDSWGQGTLVTVSSASTKGPSVFPLAPSSKSTSGGTAALGCLVKDYFPEPVTVSWNSGALTSGVHTFPAVLQSSGLYSLSSVVTVPSSSLGTQTYICNVNHKPSNTKVDKRVEPKSCDKTHTCPPCPAPELLGGPSCVFLFPPKPKDTLMISRTPEVTCVVVDVSHEDPEVKFNWYVDGVEVHNAKTKPREEQYNSTYRVVSVLTVLHQDWLNGKEYKCKVSNKALPAPIEKTISKAKGQPREPQVYTLPPSREEMTKNQVSLTCLVKGFYPSDIAVEWESNGQPENNYKTTPPVLDSDGSFFLYSKLTVDKSRWQQGNVFSCSVMHEALHNHYTQKSLSLSPGK
light: DIQMTQSPSSLSASVGDRVTITCRASQDIRNDVGWYQQKPGKAPKRLIYAASRLQSGVPSRFSGSGSGTEFTLTISSLQPEDFATYYCLQHNSYPRTFGQGTKVEIKRTVAAPSVFIFPPSDEQLKSGTASVVCLLNNFYPREAKVQWKVDNALQSGNSQESVTEQDSKDSTYSLSSTLTLSKADYEKHKVYACEVTHQGLSSPVTKSFNRGEC

Key:
HT29 hB7H4 clone 4 = test: E02-GL MESF on cell line; format: cell-based, human
HT29-huB7-H4 Clone 26 = test: Live cell imaging internalization; format: cell-based, human; conditions: 5 μg/mL Alexa Fluor 568 conjugate
Experimental: (§1) The internalization and intracellular trafficking properties of antibody E02-INT was evaluated using a quantitative live cell imaging assay in MX-1 human breast cancer cells and HT29 huB7-H4 Clone 26 human colon cancer cells overexpressing B7-H4.

MX-1 = test: Live cell imaging internalization; format: cell-based, human; conditions: 5 μg/mL Alexa Fluor 568 conjugate
Experimental: as §1

HT29 hB7H4 clone 26 = test: E02-GL MESF on cell line; format: cell-based, human
OVCAR4 = test: E02-GL MESF on cell line; format: cell-based, human
[1] = test system: HEK 293 Jump In TREX cells stably expressing cynomolgus monkey B7-H4; test: Flow cytometry binding; format: cell-based
From the text: (§2) Flow cytometry was used to measure binding of antibody E02-INT to non-transduced HEK 293 Jump In TREX cells and to HEK 293 Jump In TREX cells stably expressing human, murine, or cynomolgus monkey B7-H4.

[2] = test system: non-transduced HEK 293 Jump In TREX cells; test: Flow cytometry binding; format: cell-based; conditions: B7-H4-negative
From the text: as §2

[3] = test system: HEK 293 Jump In TREX cells stably expressing human B7-H4; test: Flow cytometry binding; format: cell-based
From the text: as §2

[4] = test system: HEK 293 Jump In TREX cells stably expressing murine B7-H4; test: Flow cytometry binding; format: cell-based; conditions: listed as E02-INT
From the text: as §2

human B7-H4 = target: T1, human B7-H4 (Homo sapiens, UniProt Q7Z7D3); test: ELISA comparison with 1D11; format: binding; conditions: E02-GL compared with 1D11
T1 construct: Human B7H4 ECD; FlagHis10 or FcHis6 (either; equivalent data); made in house
T1 sequence (Q7Z7D3 25-259 limits assumed): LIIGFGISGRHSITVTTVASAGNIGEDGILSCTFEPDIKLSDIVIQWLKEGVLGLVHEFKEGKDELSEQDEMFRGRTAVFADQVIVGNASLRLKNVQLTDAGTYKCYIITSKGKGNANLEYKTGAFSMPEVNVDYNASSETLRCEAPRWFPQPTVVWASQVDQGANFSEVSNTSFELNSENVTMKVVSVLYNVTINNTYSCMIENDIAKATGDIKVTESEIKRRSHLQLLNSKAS
Experimental: The binding of the anti-B7-H4 antibodies (e.g. intermediate ZY0EQD-E02-GL and anti-B7-H4 mAB D11) to B7-H4 (e.g. human and mouse B7-H4) was measured by ELISA. Recombinant B7-H4-Fc (e.g. Human B7-H4-Fc and mouse B7-H4-Fc) proteins were diluted into DPBS to give 5 ug/ml solution. 50 μL of the diluted stocks was then added Nunc Maxisorp 96 well plates. 50 μL/well DPBS was added to control wells. The antigens were allowed to adsorb to the plates overnight at 4° C., washed once with DPBS and incubated with blocking buffer (3% w/v Marvel in DPBS) at room temperature for 1 hour. The plates were then washed once with PBS and incubated for 1 hour with 6.4 pM-100 nM anti-B7-H4 antibody (e.g. intermediate ZY0EQD-E02-GL or anti-B7-H4 mAb D11) diluted in DPBS containing 1% BSA, 0.3% Triton X-100. The plates were then washed three times with PBS containing 0.1% Tween and incubated with peroxidase-conjugated goat anti-human light chain antibody (Sigma Aldrich, Poole, UK) for 1 hour at room temperature. The plates were then washed five times with PBS containing 0.1% Tween. Following a 5-minute incubation with TMB peroxidase substrate, the reaction was stopped by the addition of 0.5 M H2SO4. Absorbance at 450 nm (A450) was measured using an Envision multilabel plate reader (Perkin Elmer, Seer Green, UK). […]

HCC1954 = test: E02-GL MESF on cell line; format: cell-based
HCC1954 tumour xenograft = test: gamma H2AX immunohistochemistry in tumour xenograft; format: in vivo; conditions: up to 10 days following treatment
Experimental: Tumour xenograft models were generated (using HCC1954 cells), and treated with E02-GL-SG3249. “E02-GL” antibody has the CDR/VH sequences (e.g. corresponds to) of ZY0EQD-E02 (“GL” means the antibody has been germlined).
Immunohistochemistry was then performed to determine gamma H2AX (marker of double strand breaks) following treatment.

[5] = test system: HT29 WT (not expressing B7-H4); test: Bystander killing in vitro (conditioned medium); format: cell-based, human; conditions: donor cells treated 4 days
Experimental: HT29 B7-H4 expressing cells were treated with E02-GL-SG3249 for 4 days, after which the conditioned medium was removed and added to HT29 WT (i.e. not expressing B7-H4).

Row | Molecule | E02-GL MESF (HT29 hB7H4 clone 4) | internalization half-life (HT29-huB7-H4 Clone 26) | internalization half-life (MX-1) | E02-GL MESF (HT29 hB7H4 clone 26) | E02-GL MESF (OVCAR4) | cellular binding [1] | cellular binding [2] | cellular binding [3] | cellular binding [4] | binding (affinity) to human B7-H4 by ELISA (human B7-H4) | E02-GL MESF (HCC1954) | gamma H2AX positive tumour cells (HCC1954 tumour xenograft) | viability of HT29 WT after conditioned medium from treated HT29 B7-H4 expressing cells [5]
1 | B1 | 71,928 MESF | 127 (±35 SD) minutes | 102 (±18 SD) minutes | 429,398 MESF | 261,997 MESF | bound | did not bind | bound | bound; also recorded: reduced compared to cells expressing human or cynomolgus monkey B7-H4 | significantly better binding; also recorded: significantly stronger binding | 47,173 MESF | – | –
2 | B2 | – | – | – | – | – | – | – | – | – | – | – | Increased numbers of gamma H2AX positive tumour cells | rapid decrease in cell viability
